Assay results as given in patent US20240116997A1 (BRIGHT PEAK THERAPEUTICS, published 2024).

T1: IL-18 receptor (IL-18Rαβ) on cells (UniProt Q13478 19-541; O95256 20-599, limits assumed)
T1 sequence (looked up) 1: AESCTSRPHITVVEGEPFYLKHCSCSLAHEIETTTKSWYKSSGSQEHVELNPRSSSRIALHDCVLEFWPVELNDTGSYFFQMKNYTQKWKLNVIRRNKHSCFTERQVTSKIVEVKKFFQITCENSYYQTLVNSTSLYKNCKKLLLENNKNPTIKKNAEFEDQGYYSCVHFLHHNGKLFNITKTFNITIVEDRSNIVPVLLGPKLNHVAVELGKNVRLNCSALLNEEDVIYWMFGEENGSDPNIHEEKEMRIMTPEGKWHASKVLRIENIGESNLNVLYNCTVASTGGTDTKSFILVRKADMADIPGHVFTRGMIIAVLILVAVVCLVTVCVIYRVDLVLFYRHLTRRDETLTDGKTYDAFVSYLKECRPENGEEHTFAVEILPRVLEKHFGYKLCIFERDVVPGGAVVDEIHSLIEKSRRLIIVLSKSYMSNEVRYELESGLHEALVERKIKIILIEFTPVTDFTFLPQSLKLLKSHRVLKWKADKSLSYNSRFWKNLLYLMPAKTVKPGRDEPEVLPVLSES
T1 sequence (looked up) 2: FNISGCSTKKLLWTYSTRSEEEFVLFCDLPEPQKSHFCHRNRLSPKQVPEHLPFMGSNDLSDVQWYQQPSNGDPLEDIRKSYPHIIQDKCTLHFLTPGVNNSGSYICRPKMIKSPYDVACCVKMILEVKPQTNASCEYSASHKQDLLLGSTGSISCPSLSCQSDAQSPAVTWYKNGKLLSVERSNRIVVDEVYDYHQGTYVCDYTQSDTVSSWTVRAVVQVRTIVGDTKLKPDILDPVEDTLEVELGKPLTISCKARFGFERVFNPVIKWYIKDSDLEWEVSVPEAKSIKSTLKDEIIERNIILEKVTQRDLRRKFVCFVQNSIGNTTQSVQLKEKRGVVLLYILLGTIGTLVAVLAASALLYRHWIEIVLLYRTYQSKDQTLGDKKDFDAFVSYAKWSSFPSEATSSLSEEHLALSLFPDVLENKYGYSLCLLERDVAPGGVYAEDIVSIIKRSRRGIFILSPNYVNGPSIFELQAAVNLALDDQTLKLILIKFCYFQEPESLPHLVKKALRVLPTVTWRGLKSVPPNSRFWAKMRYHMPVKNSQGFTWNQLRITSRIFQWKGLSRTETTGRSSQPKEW

B1: C150 (V11I, T34A, C38A, K53A, C76A, C127A) (ligand)
chain: YFGKLESKLSIIRNLNDQVLFIDQGNRPLFEDMADSDARDNAPRTIFIISMYADSQPRGMAVTISVKCEKISTLSAENKIISFKEMNPPDNIKDTKSDIIFFQRSVPGHDNKMQFESSSYEGYFLAAEKERDLFKLILKKEDELGDRSIMFTVQNED
B2: C151 (V11I, D35A, C38A, K53A, C76A, C127A) (ligand)
chain: YFGKLESKLSIIRNLNDQVLFIDQGNRPLFEDMTASDARDNAPRTIFIISMYADSQPRGMAVTISVKCEKISTLSAENKIISFKEMNPPDNIKDTKSDIIFFQRSVPGHDNKMQFESSSYEGYFLAAEKERDLFKLILKKEDELGDRSIMFTVQNED
B3: C152 (V11I, S36A, C38A, K53A, C76A, C127A) (ligand)
chain: YFGKLESKLSIIRNLNDQVLFIDQGNRPLFEDMTDADARDNAPRTIFIISMYADSQPRGMAVTISVKCEKISTLSAENKIISFKEMNPPDNIKDTKSDIIFFQRSVPGHDNKMQFESSSYEGYFLAAEKERDLFKLILKKEDELGDRSIMFTVQNED
B4: C153 (V11I, D37A, C38A, K53A, C76A, C127A) (ligand)
chain: YFGKLESKLSIIRNLNDQVLFIDQGNRPLFEDMTDSAARDNAPRTIFIISMYADSQPRGMAVTISVKCEKISTLSAENKIISFKEMNPPDNIKDTKSDIIFFQRSVPGHDNKMQFESSSYEGYFLAAEKERDLFKLILKKEDELGDRSIMFTVQNED
B5: C154 (V11I, E31A, D37A, C38A, K53A, C76A, C127A) (ligand)
chain: YFGKLESKLSIIRNLNDQVLFIDQGNRPLFADMTDSAARDNAPRTIFIISMYADSQPRGMAVTISVKCEKISTLSAENKIISFKEMNPPDNIKDTKSDIIFFQRSVPGHDNKMQFESSSYEGYFLAAEKERDLFKLILKKEDELGDRSIMFTVQNED
B6: C155 (V11I, C38A, D40A, K53A, C76A, C127A) (ligand)
chain: YFGKLESKLSIIRNLNDQVLFIDQGNRPLFEDMTDSDARANAPRTIFIISMYADSQPRGMAVTISVKCEKISTLSAENKIISFKEMNPPDNIKDTKSDIIFFQRSVPGHDNKMQFESSSYEGYFLAAEKERDLFKLILKKEDELGDRSIMFTVQNED
B7: C156 (V11I, C38A, N41A, K53A, C76A, C127A) (ligand)
chain: YFGKLESKLSIIRNLNDQVLFIDQGNRPLFEDMTDSDARDAAPRTIFIISMYADSQPRGMAVTISVKCEKISTLSAENKIISFKEMNPPDNIKDTKSDIIFFQRSVPGHDNKMQFESSSYEGYFLAAEKERDLFKLILKKEDELGDRSIMFTVQNED
B8: C157 (V11I, C38A, K53A, C76A, C127A, D132A) (ligand)
chain: YFGKLESKLSIIRNLNDQVLFIDQGNRPLFEDMTDSDARDNAPRTIFIISMYADSQPRGMAVTISVKCEKISTLSAENKIISFKEMNPPDNIKDTKSDIIFFQRSVPGHDNKMQFESSSYEGYFLAAEKERALFKLILKKEDELGDRSIMFTVQNED
B9: C158 (V11I, C38A, K53A, C76A, G108A, C127A) (ligand)
chain: YFGKLESKLSIIRNLNDQVLFIDQGNRPLFEDMTDSDARDNAPRTIFIISMYADSQPRGMAVTISVKCEKISTLSAENKIISFKEMNPPDNIKDTKSDIIFFQRSVPAHDNKMQFESSSYEGYFLAAEKERDLFKLILKKEDELGDRSIMFTVQNED
B10: C159 (V11I, C38A, K53A, C76A, H109A, C127A) (ligand)
chain: YFGKLESKLSIIRNLNDQVLFIDQGNRPLFEDMTDSDARDNAPRTIFIISMYADSQPRGMAVTISVKCEKISTLSAENKIISFKEMNPPDNIKDTKSDIIFFQRSVPGADNKMQFESSSYEGYFLAAEKERDLFKLILKKEDELGDRSIMFTVQNED
B11: C160 (V11I, C38A, K53A, C76A, D110A, C127A) (ligand)
chain: YFGKLESKLSIIRNLNDQVLFIDQGNRPLFEDMTDSDARDNAPRTIFIISMYADSQPRGMAVTISVKCEKISTLSAENKIISFKEMNPPDNIKDTKSDIIFFQRSVPGHANKMQFESSSYEGYFLAAEKERDLFKLILKKEDELGDRSIMFTVQNED
B12: C161 (K8R, V11I, C38A, C76A, Q103E, C127A) (ligand)
chain: YFGKLESRLSIIRNLNDQVLFIDQGNRPLFEDMTDSDARDNAPRTIFIISMYKDSQPRGMAVTISVKCEKISTLSAENKIISFKEMNPPDNIKDTKSDIIFFERSVPGHDNKMQFESSSYEGYFLAAEKERDLFKLILKKEDELGDRSIMFTVQNED
B13: C162 (K8E, V11I, C38A, C76A, Q103R, C127A) (ligand)
chain: YFGKLESELSIIRNLNDQVLFIDQGNRPLFEDMTDSDARDNAPRTIFIISMYKDSQPRGMAVTISVKCEKISTLSAENKIISFKEMNPPDNIKDTKSDIIFFRRSVPGHDNKMQFESSSYEGYFLAAEKERDLFKLILKKEDELGDRSIMFTVQNED
B14: C163 (V11I, C38A, C76A, Q103K, C127A) (ligand)
chain: YFGKLESKLSIIRNLNDQVLFIDQGNRPLFEDMTDSDARDNAPRTIFIISMYKDSQPRGMAVTISVKCEKISTLSAENKIISFKEMNPPDNIKDTKSDIIFFKRSVPGHDNKMQFESSSYEGYFLAAEKERDLFKLILKKEDELGDRSIMFTVQNED
B15: C164 (V11I, C38A, S55H, C76A, C127A) (ligand)
chain: YFGKLESKLSIIRNLNDQVLFIDQGNRPLFEDMTDSDARDNAPRTIFIISMYKDHQPRGMAVTISVKCEKISTLSAENKIISFKEMNPPDNIKDTKSDIIFFQRSVPGHDNKMQFESSSYEGYFLAAEKERDLFKLILKKEDELGDRSIMFTVQNED
B16: C165 (V11I, C38A, S55R, C76A, C127A) (ligand)
chain: YFGKLESKLSIIRNLNDQVLFIDQGNRPLFEDMTDSDARDNAPRTIFIISMYKDRQPRGMAVTISVKCEKISTLSAENKIISFKEMNPPDNIKDTKSDIIFFQRSVPGHDNKMQFESSSYEGYFLAAEKERDLFKLILKKEDELGDRSIMFTVQNED
B17: C166 (V11I, C38A, S55T, C76A, C127A) (ligand)
chain: YFGKLESKLSIIRNLNDQVLFIDQGNRPLFEDMTDSDARDNAPRTIFIISMYKDTQPRGMAVTISVKCEKISTLSAENKIISFKEMNPPDNIKDTKSDIIFFQRSVPGHDNKMQFESSSYEGYFLAAEKERDLFKLILKKEDELGDRSIMFTVQNED
B18: C167 (V11I, C38A, C76A, S105I, C127A) (ligand)
chain: YFGKLESKLSIIRNLNDQVLFIDQGNRPLFEDMTDSDARDNAPRTIFIISMYKDSQPRGMAVTISVKCEKISTLSAENKIISFKEMNPPDNIKDTKSDIIFFQRIVPGHDNKMQFESSSYEGYFLAAEKERDLFKLILKKEDELGDRSIMFTVQNED

Tests used:
[1] = biological target: T1, IL-18 receptor (IL-18Rαβ) on cells; assay: cell-based or functional assay
[2] = biological target: T1, IL-18 receptor (IL-18Rαβ) on cells; assay: cell-based or functional assay; remark: listed apart in the source

| Binder | EC50 (nM), IFNγ induction, NK-92 cells [1] | EC50 (pM), HEK-Blue IL-18R reporter assay [2] |
| --- | --- | --- |
| B1 | 0.061 nM | 0.7 pM |
| B2 | 0.033 nM | 13.1 pM |
| B3 | 0.175 nM | 0.25 pM |
| B4 | 0.062 nM | 14.1 pM |
| B5 | 0.067 nM | 11.9 pM |
| B6 | 0.558 nM | 0.52 pM |
| B7 | 0.056 nM | 11.7 pM |
| B8 | 0.073 nM | 1.95 pM |
| B9 | 0.123 nM | 15.6 pM |
| B10 | 0.028 nM | 19.5 pM |
| B11 | 0.057 nM | 2.02 pM |
| B12 | 0.061 nM | 2.01 pM |
| B13 | 0.093 nM | 2.3 pM |
| B14 | 0.414 nM | 1.5 pM |
| B15 | 0.176 nM | 3.14 pM |
| B16 | 0.098 nM | 1.91 pM |
| B17 | 0.103 nM | 4.73 pM |
| B18 | 0.098 nM | 5.37 pM |
